Changes are numbered by the printed parent chain. Names and notes keep the numbering of the source.
Legend:
[1] = cited from earlier work; for estimated concentration in the brain, tissue, organs, and solid tumors / estimated concentration in the serum: tamoxifen orally 20 mg/day
[2] = system: HEK293T cells; experiment: Time course of ERT2 mutant safety switch activity in HEK cells; type: cell-based
Method: Twenty-four hours later, ˜3k transduced cells were plated into each well of a 96w plate and cultured in 100 μL of drug-free growth media (DMEM+10% FBS, 1% p-s, 1% Glutamax).
Killing efficiency was calculated by taking the average mCherry area quantified by the incucyte in the drug treated sample divided by the mCherry area quantified in the ND conditions of the same transduced population and subtracting that fraction from 1. 95% KE was defined as complete killing by previous studies with this same mCherry reporter being treated with Puromycin, a toxic drug that results in complete killing of HEK293T cells within 48 hours of application.

[3] = system: HEK293T cells; experiment: Suicide-switch assay, killing efficiency by incucyte; type: cell-based; details: for killing efficiency: 48 hours
Method: A 24-well dish was seeded with 25,000 Lent-X HEK293T cells (Takara, Catalog #: 632180). The next day, the cells were transduced with 25,000 pg of virus for constructs SB07351-SB07354: ERT2mut-casp9 constructs tagged with mCherry to track successfully transduced cells in a population. The constructs each take the form ERT2*mut-Casp9-IRES-RFP (SB07351=mut81; SB07352=mut88; SB07353=mut63; SB07354=mut41). The next day, transduced cells were split into a 96-well plate with ˜5,000 cells in each well and loaded into an incucyte to quantify cell expansion via images every 2 hours detecting mCherry expression. Media was exchanged 24 hours later with new media with indicated concentration of 4-OHT or no drug added. Cells continued to be imaged by the incucyte every 2 hours for 48 hours post exchange of media.
Cell death was quantified via detection of suicide-switch linked mCherry expression using the following formula:
Killing efficiency=100−((mCherry expression in drug treated population)/(mCherry expression in ND population)) [NOTE: mCherry background prevents 100% KE from being calculated; >95% killing efficiency is considered complete killing in this assay]

[4] = system: primary T cells; experiment: Killing assay of safety kill switch in transduced primary T cells; type: cell-based
Method: Primary T cells isolated from a donor were thawed and stimulated with Dynabeads for 24 hours. Next, ERT2*mut81-Casp9-IRES-RFP (SB07351, prepared as lentivirus) was transduced into the T cells. Two days post transduction, cell media were replaced with T Cell media containing IL-2 to promote expansion. 1 week post transduction, cells were quantified for transduction efficiency (Safety kill switch transduction was tracked by expression of RFP tag) by flow cytometry and then loaded into incucyte for quantification of killing efficiency.
• D0-D1: Expansion of cells in drug free T cell media (with IL-2) • D1-onward: Drug free T cell media (with IL-2) was exchanged with media containing indicated drug conditions (as well as IL-2) • Killing efficiency was calculated by the following formula:
1−(RFP expression of cells in drug treated conditions)/(RFP expression of transduced cells in the No Drug condition)

[5] = system: U87MG: 1066 cells; experiment: Modified ER-LBD validation in U87MG with mCherry reporter; type: cell-based; details: SB01066 reporter
Method: About 16 hours before transduction 100k U87MG: 1066 cells were seeded into 16 wells in 12 well plate format. During transduction, cells in each well were transduced with 100k pg of virus of ERT2 variant constructs. After transduction, cells were split into 50k cells per well in a 24 well plate format, and treated with drug-free media or a range of endoxifen or 4-OHT drug conditions. About two days after treatment of cells with endoxifen or 4-OHT, cells were collected and mCherry reporter expression was quantified by flow cytometry.
Screening of the modified ER-LBD construct library identified a subset of ERT2 variants that were sensitive to endoxifen at 1 nM. Among this subset, 15 variants (Table 19) were validated in U87MG cells for their ability to activate an mCherry reporter (SB01066; FIG. 14B) at a range of concentrations of 0 pM, 10 pM, 50 pM, 100 pM, and 1 nM of endoxifen (FIG. 15A) and 4-OHT (FIG. 15B). Expression of mCherry was quantified about […] after treatment with endoxifen or 4-OHT.
Select ERT2 variants (Table 20) from the previous screens were further tested for sensitivity to endoxifen and 4-OHT, compared to wild-type ERT2. […] Fold activation was calculated by gMFI mCherry levels of each test condition divided by gMFI mCherry levels of U87MG cells transduced with the reporter (SB01066).

[6] = system: U87MG: 2357 reporter cell line; experiment: ERT2 mutant transcriptional switch inducing an IL-12 payload (IL-12p70 ELISA); type: cell-based; details: 72 hours
Method: FIG. 28A depicts constructs and experimental methods for evaluating exemplary ERT2 mutant transcriptional switches for inducing expression of an IL-12 payload. U87MG cells were transduced with construct SB02357, comprising synthetic promoter comprising a 4×ZF-10 zinc finger binding site (SEQ ID NO: 59) linked to a minimal promoter operably linked to an IL-12 encoding sequence. This generated a U87MG: 2357 reporter cell line used for assessing the ability of ERT2 transcriptional switch constructs to activate transcription of the IL-12 payload in a ligand-dependent manner.
25k U87MG: 2357 IL-12 payload transduced line was transduced with MOI of 1 of the ERT2 constructs SB03422, SB06149, SB09626, SB09642, SB09652, and SB09657, which are described in Example 9. […] The next day, cells were split into ND or drug titration conditions to evaluate performance at a range of Endoxifen and concentrations. 72 hours later, supernatant was harvested for quantification of IL-12 by IL-12p70 ELISA. IL-12 levels were read with a spectrophotometer at wavelength 450 nm with wavelength correction to 540 nm according to manufacturer's protocol. A kit-provided standard to calculate detected levels of IL-12 in 100 μL of media harvested from ˜100k cells based on OD.

[7] = system: U87MG: 1066 reporter cell line; experiment: ERT2 mutant transcriptional switch activity, mCherry reporter; type: cell-based; details: range of endoxifen concentrations
Method: FIG. 26A depicts constructs and experimental methods for evaluating exemplary ERT2 mutant transcriptional switches. U87MG cells were transduced with the mCherry reporter construct SB01066, comprising synthetic promoter comprising a 4×ZF-10 zinc finger binding site (SEQ ID NO: 59) linked to a minimal promoter operably linked to an mCherry encoding sequence. This generated a U87MG: 1066 reporter cell line used for assessing transcriptional switch activity of ERT2 transcriptional switch constructs.
25k U87MG: 1066 reporter transduced line was transduced at a MOI of 1 with various ERT2 transcriptional switch constructs having the following structure: pSFFV: ZF10-1 (zinc finger DNA binding domain, SEQ ID NO: 84)_TCR linker (SEQ ID NO: 86)_p65 (transcriptional activation domain, SEQ ID NO: 64)_[…] linker (SEQ ID NO: 88)_ERT2 domain. The ERT2 mutants included a number of amino acid substitutions in addition to the “WT ERT2” mutations G400V/M543A/L544A/V595A.
The next day, cells were split into no drug or drug titration conditions to evaluate performance at a range of endoxifen and estradiol concentrations. Performance of each ERT2 mutant transcriptional switch was evaluated by their ability to translocate and bind to the zinc finger binding site upstream of mCherry and initiate mCherry expression.
The background normalized ND (0) conditions were divided by the average NV gMFI mCherry value in order to reflect any basal activity seen by each mutant. FIG. 26C depicts induced mCherry expression plotted against basal activity for each of the tested ERT2 transcriptional switch constructs.

CC/C(=C(\c1ccc(O)cc1)c1ccc(OCCN(C)C)cc1)c1ccccc1 [Construct 4-OHT, 4-hydroxytamoxifen]
estimated concentration in the brain, tissue, organs, and solid tumors [1]: 0.4 nM | estimated concentration in the serum [1]: 0.04 nM

CC/C(=C(\c1ccc(O)cc1)c1ccc(OCCNC)cc1)c1ccccc1 [endoxifen]
estimated concentration in the brain, tissue, organs, and solid tumors [1]: 2.5 nM | estimated concentration in the serum [1]: 0.25 nM

CC/C(=C(\c1ccccc1)c1ccc(OCCN(C)C)cc1)c1ccccc1 [tamoxifen]
average peak plasma concentration ([1]; typical clinical dose of tamoxifen): approximately 40 ng/ml

B1: SB07351: suicide-switch construct ERT2*mut-Casp9-IRES-RFP with mut81 (protein)
chain: AGDMRAANLWPSPLMIKRSKKNSLALSLTADQMVSALLDAEPPILYSEYDPTRPFSEASMMGLLTNLADRELVHMINWAKRVPGFVDLTLHDQVHLLECAWMEILMIGVVWRSMEHPVKLLFAPNLLLDRDQGKCVEGLVEIFDMLLATSSRFRMMNLQGEEFVCLKSIILLNSGVYTFLPSTLKSLEEKDHIHRVLDKITDTLIHLMAKAGLTLQQQHQRLAQLLLILSHIRHMSNKGMELLYSMKCKNVVPLYDLLLEAADAHRLHAPTSRGGASVEETDQSHLATAGSTSSHSLQKYYITGEAEGFPAT
killing efficiency and rate compared to the WT ERT2 safety switch ([2]; 0.25 nM endoxifen and 0.04 nM 4-OHT, 2.5 nM endoxifen+0.4 nM 4-OHT): greater killing efficiency, and at a faster rate | sensitivity to Estradiol ([2]; 2.5 nM estradiol, long exposure times): modest activity at late time points | killing efficiency ([3]; 0.001 pM of 4-OHT): ~80% | killing efficiency ([3]; down to 0.01 pM of 4-OHT): > 95% | concentration of efficient killing, fold lower than the Ctrough of 4-OHT in humans ([3]; humans taking FDA approved daily dose of Tamoxifen): 400 × | time to complete killing ([4]; 2.5 nM Endoxifen & 0.4 nM 4-OHT): ≤ 48 h | cell killing without inducer ([4]; absence of the small molecule inducer cocktail): did not induce cell killing | sensitivity to Estradiol ([4]; day 5, Estradiol 2.2 pM): insensitivity | killing efficiency ([4]; day 5, endoxifen 1 pM and higher): >= 95% | killing efficiency ([4]; day 5, endoxifen as low as 0.001 pM): Strong killing efficiency | sensitivity to Estradiol ([4]; over time, 2.2 pM Estradiol): insensitive

B2: wild-type ERT2: ERT2 with G400V/M543A/L544A/V595A, SEQ ID NO: 3; benchmark construct (protein)
chain: SAGDMRAANLWPSPLMIKRSKKNSLALSLTADQMVSALLDAEPPILYSEYDPTRPFSEASMMGLLTNLADRELVHMINWAKRVPGFVDLTLHDQVHLLECAWLEILMIGLVWRSMEHPVKLLFAPNLLLDRNQGKCVEGMVEIFDMLLATSSRFRMMNLQGEEFVCLKSIILLNSGVYTFLSSTLKSLEEKDHIHRVLDKITDTLIHLMAKAGLTLQQQHQRLAQLLLILSHIRHMSNKGMEHLYSMKCKNVVPLYDLLLEAADAHRLHAPTSRGGASVEETDQSHLATAGSTSSHSLQKYYITGEAEGFPATA
4-OHT concentration at which mCherry reporter expression is activated [5]: about 25 nM | endoxifen concentration at which mCherry reporter expression is activated [5]: about 25 nM

B3: SB09652: ERT2 mutant transcriptional switch construct pSFFV: ZF10-1_p65_ERT2 domain (Table 23) (protein)
chain: B2 chain with L73I, L110V, N132D, M140L, S182P, M236A, H243L
modifications: ERT2 domain of ZF10-1_p65_ERT2 construct
endoxifen concentration at which IL-12 expression is induced [6]: 0.1 nM | fold activation and induced mCherry levels compared to WT (SB03422) [7]: highest fold activation and induced mCherry levels

B4: SB09642: ERT2 mutant transcriptional switch construct pSFFV: ZF10-1_p65_ERT2 domain (Table 23) (protein)
chain: B2 chain with L103M, L128V, N132D, M140L, S182P, H243L
modifications: ERT2 domain of ZF10-1_p65_ERT2 construct
endoxifen concentration at which IL-12 expression is induced [6]: 0.1 nM | fold activation and induced mCherry levels compared to WT (SB03422) [7]: highest fold activation and induced mCherry levels

B5: SB09657: ERT2 mutant transcriptional switch construct pSFFV: ZF10-1_p65_ERT2 domain (Table 23) (protein)
chain: B2 chain with L73I, L103M, N132D, S182P, H243L
modifications: ERT2 domain of ZF10-1_p65_ERT2 construct
endoxifen concentration at which IL-12 expression is induced [6]: 0.1 nM | fold activation and induced mCherry levels compared to WT (SB03422) [7]: highest fold activation and induced mCherry levels

B6: SB09626: ERT2 mutant transcriptional switch construct pSFFV: ZF10-1_p65_ERT2 domain (Table 23) (protein)
chain: B2 chain with L73I, N132D, M140L, S182P, H243L
modifications: ERT2 domain of ZF10-1_p65_ERT2 construct
endoxifen concentration at which IL-12 expression is induced [6]: 0.1 nM | fold activation and induced mCherry levels compared to WT (SB03422) [7]: highest fold activation and induced mCherry levels

Source: US20260022364A1, “ERT2 MUTANTS, INDUCIBLE CELL DEATH SYSTEMS, AND USES THEREOF” (Senti Biosciences, Inc., priority 2023, published 2026)
